{"source": "paper PMC3042717", "target": "GST-VP16 (aa 452-490) (herpes simplex virus) (UniProt P06492)", "sequence (P06492 452-490)": "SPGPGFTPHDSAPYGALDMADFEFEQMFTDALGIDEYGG", "experiment": "pull-down", "data": [{"substance": "wild-type p300 over-expressed in A293 cells, Q09472 1-2414", "values": [{"measurement": "fold more efficient pull-down than of p300ΔC", "result": 5, "unit": "fold"}]}]}
